Where two headings read alike, the source gives them in different places.
Assays:
SARS-CoV-2 Spike RBD [1] = molecular target: T1, SARS-CoV-2 Spike RBD (SARS-CoV-2, UniProt P0DTC2 319-541); settings: protein: commercial; tags: C-terminal 6xHis; label: 5'-FAM
SARS-CoV-2 Spike RBD [2] = molecular target: T1, SARS-CoV-2 Spike RBD

B1: FAM-Aptamer (ssDNA)
DNA: CAGCACCGACCTTGTGCTTTGGGAGTGCTGGTCCAAGGGCGTTAATGGACA
B1: binds (SARS-CoV-2 Spike RBD [1]).

B2: Aptamer (ssDNA)
DNA: B1 DNA
B2: binds (SARS-CoV-2 Spike RBD [2]).
